Results: patent US20260115279A1 (VIB VZW, published 2026)

Tests used:
[1] = target: BamA, E. coli, untagged (endogenous, or co-expressed from pSlyB-BamA with its native signal peptide) (E. coli, UniProt P0A940 21-810); assay: cell-based or functional assay
[2] = target: the molecule itself; assay: α-SlyB Western of semi-native PAGE of whole cell lysate, with or without 1 mM EDTA

Protein	cellular thermal shift assay (CETSA) on cells treated with EDTA: melting temperature of BamA in ΔslyB mutant versus WT cells [1] [°C]	binding result [2]
SlyB, native (endogenous) lipoprotein of E. coli (other, N-terminal Cys18 carries the lipid anchor) CVNNDTLSGDVYTASEAKQVQNVSYGTIVNVRPVQIQGGDDSNVIGAIGGAVLGGFLGNTVGGGTGRSLATAAGAVAGGVAGQGVQSAMNKTQGVELEIRKDDGNTIMVVQKQGNTRFSPGQRVVLASNGSQVTVSPR	~4	–
SlyB^PL, SlyB mutant I65A/V69A/F73A with disrupted outer leaflet phospholipid binding site (other, whole, on cells; Tested in whole cell lysates and membrane fractions) CVNNDTLSGDVYTASEAKQVQNVSYGTIVNVRPVQIQGGDDSNVIGAAGGAALGGALGNTVGGGTGRSLATAAGAVAGGVAGQGVQSAMNKTQGVELEIRKDDGNTIMVVQKQGNTRFSPGQRVVLASNGSQVTVSPR	–	no binding
